# Key:
# DDX3wt (Homo sapiens) = DDX3wt (Homo sapiens) (UniProt O00571); experiment: filter binding; details: no ATP hydrolysis; 3 mM Mg2+; 50 µg/ml salmon sperm DNA; EMSA: on ice, protein buffer 25 mM Tris-HCl pH 7.5, 0.5 mM DTT, 20% glycerol, 100 mM NaCl plus 5x binding buffer (10% glycerol, 5 mM MgCl2, 2.5 mM EDTA pH 8 …)
# [1] = biological target: DDX3ΔINS del250-259 (Homo sapiens) (UniProt O00571); experiment: filter binding; details: no ATP hydrolysis; 3 mM Mg2+; 50 µg/ml salmon sperm DNA; EMSA: on ice, protein buffer 25 mM Tris-HCl pH 7.5, 0.5 mM DTT, 20% glycerol, 100 mM NaCl plus 5x binding buffer (10% glycerol, 5 mM MgCl2, 2.5 mM EDTA pH 8 …)
# DDX3ΔINS del250-259 (Homo sapiens), sequence (O00571 other isoform, or with tags, fused parts or gaps mutant): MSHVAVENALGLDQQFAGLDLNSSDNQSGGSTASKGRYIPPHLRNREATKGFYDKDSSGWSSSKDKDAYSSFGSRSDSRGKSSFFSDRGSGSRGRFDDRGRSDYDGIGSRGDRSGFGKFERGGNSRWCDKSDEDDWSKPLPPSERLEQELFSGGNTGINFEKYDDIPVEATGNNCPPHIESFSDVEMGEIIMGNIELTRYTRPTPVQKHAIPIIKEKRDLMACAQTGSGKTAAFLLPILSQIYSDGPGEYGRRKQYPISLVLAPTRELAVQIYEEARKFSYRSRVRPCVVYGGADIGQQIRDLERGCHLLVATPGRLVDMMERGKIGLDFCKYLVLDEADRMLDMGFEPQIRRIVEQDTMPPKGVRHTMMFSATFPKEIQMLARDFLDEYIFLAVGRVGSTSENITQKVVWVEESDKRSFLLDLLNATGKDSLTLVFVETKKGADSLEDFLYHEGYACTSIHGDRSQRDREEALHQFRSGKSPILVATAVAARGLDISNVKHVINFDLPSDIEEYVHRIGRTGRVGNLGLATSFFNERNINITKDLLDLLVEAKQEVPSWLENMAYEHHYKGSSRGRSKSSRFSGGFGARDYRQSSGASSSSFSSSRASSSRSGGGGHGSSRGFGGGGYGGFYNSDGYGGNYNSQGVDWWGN
# DDX3wt (Homo sapiens), sequence (O00571 whole entry): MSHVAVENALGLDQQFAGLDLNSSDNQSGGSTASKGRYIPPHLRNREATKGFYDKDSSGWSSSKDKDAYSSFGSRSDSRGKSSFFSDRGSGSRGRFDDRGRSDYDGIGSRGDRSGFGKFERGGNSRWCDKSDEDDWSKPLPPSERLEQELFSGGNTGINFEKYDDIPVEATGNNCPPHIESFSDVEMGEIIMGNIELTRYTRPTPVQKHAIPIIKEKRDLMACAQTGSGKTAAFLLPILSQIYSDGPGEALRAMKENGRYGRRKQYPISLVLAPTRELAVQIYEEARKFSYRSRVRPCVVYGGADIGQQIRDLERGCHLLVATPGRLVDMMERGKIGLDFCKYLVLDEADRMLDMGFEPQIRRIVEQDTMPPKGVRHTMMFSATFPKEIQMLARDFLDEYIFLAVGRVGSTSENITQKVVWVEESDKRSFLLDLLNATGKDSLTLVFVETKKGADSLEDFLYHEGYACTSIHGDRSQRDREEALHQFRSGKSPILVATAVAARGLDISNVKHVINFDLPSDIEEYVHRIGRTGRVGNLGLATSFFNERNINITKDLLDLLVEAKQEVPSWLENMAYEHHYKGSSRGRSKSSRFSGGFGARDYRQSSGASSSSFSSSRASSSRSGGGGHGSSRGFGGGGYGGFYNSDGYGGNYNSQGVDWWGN
substance,measurement,setting,value
18/36mer dsDNA,binding signal (fold (reference affinity)),DDX3wt (Homo sapiens),1
same,binding signal (fold reduced affinity vs DDX3wt),[1],2.1

# Source: publication PMC3093405, “A Motif Unique to the Human Dead-Box Protein DDX3 Is Important for Nucleic Acid Binding, ATP Hydrolysis, RNA/DNA Unwinding and HIV-1 Replication” (PLoS ONE, 2011)
